Reference: the nanobody polyreactivity screen of Harvey et al. (2022)

Experiment: yeast display, Sf9 membrane polyspecificity reagent, FACS + sequencing; frameworks hold sequencing errors
Outline: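 A nanobody's polyreactivity label depends on the gate it was sorted from. Yeast display cells were stained with 10% biotinylated, detergent-solubilized Sf9 membrane reagent for 1 hour at 4 °C, enriched on streptavidin microbeads and sorted by FACS. The low and high (top ~1%) gates were set on anti-HA fluorescence for expression and streptavidin fluorescence for reagent binding.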

| Sequence | polyreactivity (PSR sort gate) |
| --- | --- |
| QVQLVESGGGLVQAGGSLRLSCAASGSTFRHNAMGWYRQAPGKERELVATIRTSGGTTYYADSVKGRFTISRDNAKNTVYLQMNSLKQEDTAVYYCAAVSYLFLYQGYPIAYPMYYWGQGSQVTVSS | low polyreactivity |
| QVQLVESGGGLVQAGGSLRLSSAASGSTFTAYAMGWYRQAPGTERELVAAISRSRGRTYYADSVKGRFTISRDNAKYTVYLEMISLKPEDTAVLYCNARGGSDGDYWGQGTQVTVSS | high polyreactivity |
| QVQLVESGGGLVQAGGSLRLSCAASGYIFDGNAMGWYRKAPGKERELVAPITWTGGSTYYADSVKGRFTISRDNAKNTVYLQMNSLKPEDTAVYYCAKPYDPGPYHSSYRATDDYWGQGTQVTVSS | low polyreactivity |
| QVQLVESGGGLVQAGGSLRLSCAASGNTLIVNAMGWYRQAPGKETELVAAITRDGRTNYADSVKGRFTISRDNAKNTVYLQMNSLKPEDTAVYYCAAEGVPDALDRDYWGQGTQVTVSS | low polyreactivity |
| QVQPQESGGGPVQACGSLRLSCAASGNILDADILGWYRLVPGIERELVASITDGGSTNYAESVKGRFTIRRDNAKNTVYLQMNSLIPEDTAVYYCAVWSLGRWRHYYWGQGTQVTVSS | low polyreactivity |
| QVQLVESGGALVQAGGSLRLSCAASGSTFFHYAMGWYRQAPGKERELVAAIDSNGGSTYYADSVKGRFTISRDNAKNTVYLQMNSLKPEDTAVYYCAADDLAEFEYDYWGQGTQVTVSS | low polyreactivity |
| QVQLVESGGGLVQAGGSLRLSCAASGRIFRYNTMGWYRQAPGKERELVADINSGGSTYADSVKGRFTISRDNAKNTVYLQMNSLKPEDTAVYYCNADSGLRAGYYYGYDYWGQGTQVTVSS | low polyreactivity |
| QDQLVESGGGVVQAGGSLRLSCAASGSTFEYNAMGWYRQAPGKERELVASSTNYADSVKGRFTISRDNAKNTVYLQMNSLKPEDTAVYYCGREQGVNRNHDYWGQGTQVTVSS | low polyreactivity |
| QVQIVESGGGLVQAGGSLRLSCAASGSTVQYYAMGWYRQAPGKERELVAAISYTGGSTYYADSVKARFTISRDNAKNSVYLEMSSLKPEDTAVYYCAAGRRGSDTGTEYYWGQGTQVTVSS | high polyreactivity |
| QVQLVESGGGLVQAGGSLRLSCAASGSTFPYYAMGWYRQAPGKERELVAAISSSGGSTYYADSVKGRFTISRDNANNTVYLQMNSLKPEDTAVYYCATSSLYRYWHRYDYWGQGTQVTVSS | high polyreactivity |
| QVQLVESGGGLVQAGGSLRLSCAASGSIFTRYAMGWYRQAPGKERELVAAIRTSGGSTYYADSVKGRFTISRDNAKNTVYLQMNSLKPEDTAVYYCARRYYKSNFYYWGQGTQVTVSS | high polyreactivity |
| QVQLVESGGGLVQAGGSLRLSCAASGLTFPYYAMGWYRQAPGKERELVAAISSSGGSTYYADSVKGRFTISRDNAKNTVYLQMNSLKPEDTAVYYCAAQRYINYDYWGQGTQVTVSS | high polyreactivity |
| QVQLVESGGGLVQAGGSLRLSCAASGSIFAYYSMGWYIQAPGKERELVAAISWSGGSTYYADSVKGRFTISRDNAKNTVYLQMNSLKPEDTAVYYCNVARSYSKMYWGQGTQVTVSS | high polyreactivity |
| QVQLVESGGGLVQAGGSLRLSCGASGRTFYRYDMGWYRQAPGKERELVASITSGGNTNYADSVKGRFTISRDNAKNTVYLQMNSLKPEDTAVYYCAKEWYRVQHYRLITEFDYWGQGTQVTVSS | high polyreactivity |
| QVQLVESGGGLDQAGGSLRLSCAASGGIFDDYAKGRYRQAPRKERELVAAISSSGGSTYYADSVKGRFTISLDNAKNTVYLQMNSLKPEYTAVYLCNADSRGSFGYWGQGTQVTVSS | high polyreactivity |
| QVQLVESGGGIVQAGGSLRLSCAASGSIFSRKVMGWYRQAPGKDRELVAAISWSGSSTSYADSVKGRFTISRDTAKNTVYLQMNSLKPEDTAVYYCNRYFGQGYWGQGTQVTVSS | high polyreactivity |
| QVQLVESGGGLVQAGGSLRLSCAASGRTFHAYAMGWSRQAPGKGRELVAAITRTGTTHYADSVKGRFTISRDNAKNTVYLQMNSLKPEDTAVYYCAAQHVRVDAQFVLQGYDYWGQGTQVTVSS | low polyreactivity |
| QVQLVESAGGLVQAGGSLRLSCAASGSTFYRYAMGWYRQAPGKERELVAAISTRGGSTYYADSVKGRFTISRDNAKNTVYLQMNSLKPEDTAVYYCAAKSGSPDDYDYWGQGTQVTVSS | high polyreactivity |
| QVQLVESGGGLVQAGGSLRLSCAASGSTFWIYTMGWYRQAPGKERELVAAITWSGGRTYYADSVKGRFTISRDNAKNTVYLQMNSLKPEDTAVYYCNADVYSYRPSTIQRYVLFDYWGQGTQVTVSS | low polyreactivity |
| QVQLVESGGGLVQAGGSLRLSCAASGSTLVLNAMGWYRPATGKERELVAAITISGDTTYYADSVKGRFTISRDNAKNTVYLQMNCLKPEDTAVYYCAAVVSTVDCMEYWGQGTQVTVSS | low polyreactivity |
| QDHHVDSGGGLVQAGGILRLSCAASGSIIDYYPMGWYRQPPGKERELVARIRRRSSSTFYADSVKGRFTISRDNEKNTDYLQMNSLKPEDTAVYYCAADSYAWSTGGIFDYWGQGTQVTVSS | high polyreactivity |
| QVQLVESGGGLVQAGGSLRLSCAASGSIFITYAMGWYRQAPGKERELVAAITDSGDSTYYADSVKGRFTISRDNAKNTVYLQMISLKPEDTAVYYCAKRYYGSYSHFIRTDGYWGQGTQVTVSS | low polyreactivity |

| Sequence | polyreactivity (PSR sort gate) |
| --- | --- |
| QVQLVESGGCLVQAGGSLRLSCAASGFTLTAYAMGWYRQAPGKEREFVAAISTSGTRTYYADSVKGRFTISRDNAKITVYLQMYSLKPDDTAVYYCAARYSGYQYWKFNYWGQGTQVTVSS | high polyreactivity |
| QVQLVESGGGLVQAGVSLRLSCAASGSTVGYNAMGWYRQAPGKERELVAAISGNGGSTYADSVKGRFTISRDNAKNTVYLQMNSLKPEDTAVYFCAAVQYGYGLASDSIFDYWGQGTQVTVSS | high polyreactivity |
| QVQLVESGGGLDQAGGSLRLSCAASGSIFAYYVMGWYRQAKGKERELVAAITSVGSTNYADSVKGRFTISRDNAKNTVYLQMNSLKPEESAVFYCAADQYQARYYYWGQGTQVTVSS | low polyreactivity |
| QVQLVESGGGLVQAGGSLRLSCAASGSIFRSYAMGWYRQAPGKERELVAAISSSGGRTYYADSVKGRFTISRDNAKNTVYLQMNSLKPEDTAVYYCAAYGGGGYKYDYWGQGTQVTVSS | low polyreactivity |
| QVQLVESGGGLVQAGGSLRLSCAASGSTFVSNAMGWYRPAPGKERELVASISQSGGGTDYADSVKGRFTISRDNAKNTVYLQMNSLKPEDTAVYYCAADRVPVQAPYDYWGQGTQVTVSS | high polyreactivity |
| QVQLVESGGGLVQAGGSLRLSCAASGRTFGTNAMGWYRPAPGKERELVAAISWRGTSTYYADSVKGRFTISRDNAKNTVYLQMNILKPEVTAVYYCAADFSYTSYATRYQGDYWGQGTQVTVSS | low polyreactivity |
| QVQLVESGGGLVQAGGSLRLSCAASGSTFGFNAMGWYRQAPGKERELVAAISRSGGSTYYADSVKGRFTISRDNAKNTVYLQMNSLKPEDTAVYYCAVGYRYLKWVDYWGQGTQVTVSS | high polyreactivity |
| QVQLVESGGGLVQAGGSLRLSCAASGSTFTTNVMGWYRQAPGKERELVAAISWSSGSTYYADSVKGRFTISRDNAKNTVSLPMNSLKPEDTAVYYCAARQVIFYPYSRYYYWGQGTQVTVSS | high polyreactivity |
| QDQLVESGGGLVQAGGSLRLSCRASGFTFTHYAMGWSRKAPGKERELVAAIDRSGDSTYYADSVKGRFTISRDNAKNTVYLQMNSLKPEDTAVYYSAADLFDSLIWVYWTYVARFDYWGQGTQVTVSS | low polyreactivity |
| QVQLVESVGGLVQAGGSLRLSCAASALTFQNNAMGWYRQAPGKEREFVATITSVGRTNYADSVKGRFTISRDNAKNTVYLQMNSLNPEDTAVYYCAASKARWPRGGSKYYYWGQGTQVTVSS | high polyreactivity |
| QVQLVESGGGLVQAGGSLRLSCAASGSTFPGNAMGWYRQAPGKERELVASIRRSGGSTYYADSVKGRFTISRDNAKNTVYLQMNSLKPEDTAVYYCAKRTFLVSGPRSYGWYGVYYWGQGTQVTVSS | high polyreactivity |
| QVQLVESGGGLVQAGGSLLLSCAASGSTFSFYAMGWYRQAPGKERELVAAIDSGGRTKYADSVKGRFTISRDNAKNTVYLQMNSLKPEDTAVYYCAAVFRGLWLYDYWGQGTQVTVSS | low polyreactivity |
| QVQLVESGGGLVQAGGSLRLSCAASGRIFYMNAMGWYRQAPGKERELVAGITNSTTGTYYADSVKGRFTISRDNAKNTVYLQMNSLKPEDTAVYYCNTDVAYEEPVETYDYWGQGTQVTVSS | low polyreactivity |
| QVQLVESGGGLVQAGGSLRLSSAASGSIFLLYAKGWDRQAPGKERELVAAISRSGDSTHYADSVKGRFTISRDNAKNTVYLQMNSLQPEDTAVYYCAADGYDPYGGLYAYWGHGTQVTVSS | low polyreactivity |
| QVQLVESVGGLVQAGGSLRLSCAASGRIFSVYTMGWYRQAPGKERELVAAISSGASTNYADSVKGRFTISRDNAKNTVYLQMNSLKPEDTAVYYCNAQWYLRLGASKTWVDVDYWGQGTQVTVSS | low polyreactivity |
| QVQLVESGGGLVQAGGSLRLSCAASGFIFRYYAMGWYRQAPGKERELVAAIRGNSGNTYYADSVKGRFTISRDNAKNTVYLQMNSLKPEDTAVYYCAKPFNIWGQGTQVTVSS | high polyreactivity |
| QVQLVESGGGLVQAGGSLRLSCAASGFIFASYAMGWYRQAPGTERELVAAISWRGGSTYYADSVKGRFTISRDNAKNTVYLQMNSLKPEDTAVYYCNAYGYDGTGRGYDTLDYWGQGTQVTVSS | low polyreactivity |
| QVQLVESGGGLVQAGGSLRLSCAASGITFLPYAMGWYRQAPGKERELVAAISWRGGRTYYADSVKGRFTISRDNAKNTVYLQMNSLKPEDTAVYYCAAVLVRKSGITYDYWGQGTQVTVSS | high polyreactivity |
| QVQLVESGGGLVQAGGSLRLTCAASGRTFNPYAMGWYRQAPGKERELVARIRGTGVSTYYADSVKGRFTISRDYAKNTVYLQMNSLKPEDTDVYYINAVATPVSDRWSYLSHGWYYYWGHGTQVTVSS | high polyreactivity |
| QVQLVESGGGLVQAGGSLRLSCAASGIIFIYNGMGWYRQAPGKERELVATINWSGGNTYYADSVKGRFTISRDNAKNTVSLQMNSLKPEDTAVYDCAVRGSRFWGYDYWGQGTQVTVSS | low polyreactivity |
| QDQLVESGGGLVQAGGSLRLSCAASGFTIDPYAMGWYRPAPGKERELVAGISWSGGSTYYADSVKGRFTISRDNAKNTVYLQMNSLKPEVTAVYYCARDYSWLTRGSDYDYWGQGTQVTVSS | low polyreactivity |
